# Experimental data reported in patent publication US12440565.
# Target: CD40 on the surface of mature dendritic cells (mDC) (human) (UniProt P25942)
# Test: cell-based or functional assay
# CD40 on the surface of mature dendritic cells (mDC) (human), sequence (P25942 21-277): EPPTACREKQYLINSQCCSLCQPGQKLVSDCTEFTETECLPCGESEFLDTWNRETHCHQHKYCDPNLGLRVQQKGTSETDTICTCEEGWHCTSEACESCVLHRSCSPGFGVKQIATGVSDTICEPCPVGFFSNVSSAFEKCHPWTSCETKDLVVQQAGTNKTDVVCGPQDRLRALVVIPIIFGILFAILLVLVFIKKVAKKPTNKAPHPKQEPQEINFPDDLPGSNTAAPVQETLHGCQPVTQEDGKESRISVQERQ
binder,measurement,value
"Mitazalimab (antibody, INN chains, looked up, V domains shown) VH: EVQLLESGGGLVQPGGSLRLSCAASGFTFSTYGMHWVRQAPGKGLEWLSYISGGSSYIFYADSVRGRFTISRDNSENALYLQMNSLRAEDTAVYYCARILRGGSGMDLWGQGTLVTVSS VL: QSVLTQPPSASGTPGQRVTISCTGSSSNIGAGYNVYWYQQLPGTAPKLLIYGNINRPSGVPDRFSGSKSGTSASLAISGLRSEDEADYYCAAWDKSISGLVFGGGTKLTVL","CD83+ (%) of mDC, agonist at 2 µg/mL (control group 81.00)",95.7%
same,"IL-12p70 (pg/mL), agonist at 2 µg/mL (control group 50.0)",1470 pg/mL
"Cifurtilimab (antibody, INN chains, looked up, V domains shown) VH: EVQLVESGGGLVQPGGSLRLSCAASGYSFTGYYIHWVRQAPGKGLEWVARVIPNAGGTSYNQKFKGRFTLSVDNSKNTAYLQMNSLRAEDTAVYYCAREGIYWWGQGTLVTVSS VL: DIQMTQSPSSLSASVGDRVTITCRSSQSLVHSNGNTFLHWYQQKPGKAPKLLIYTVSNRFSGVPSRFSGSGSGTDFTLTISSLQPEDFATYFCSQTTHVPWTFGQGTKVEIK",CD83+ (%) of mDC at 0.001 µg/mL Cifurtilimab,83.4%
same,CD83+ (%) of mDC at 0.01 µg/mL Cifurtilimab,84.6%
same,CD83+ (%) of mDC at 0.1 µg/mL Cifurtilimab,93.3%
same,CD83+ (%) of mDC at 1 µg/mL Cifurtilimab,94.1%
same,CD83+ (%) of mDC at 3 µg/mL Cifurtilimab,95.7%
same,CD83+ (%) of mDC at 10 µg/mL Cifurtilimab,95.7%
same,"CD83+ (%) of mDC, agonist at 2 µg/mL (control group 81.00)",93.2%
same,"CD83+ (%), Cifurtilimab together with Atezolizumab, batch 1 (control with Atezolizumab alone 92.69)",96.9%
same,"CD83+ (%), Cifurtilimab together with Atezolizumab, batch 2 (control with Atezolizumab alone 64.27)",92.3%
same,"CD83+ (%), Cifurtilimab together with Atezolizumab, batch 3 (control with Atezolizumab alone 89.18)",97.6%
same,"CD83+ (%), Cifurtilimab together with Atezolizumab, batch 4 (control with Atezolizumab alone 75.24)",96.1%
same,IL-12p70 (pg/mL) at 0.001 µg/mL Cifurtilimab,10.2 pg/mL
same,IL-12p70 (pg/mL) at 0.01 µg/mL Cifurtilimab,10 pg/mL
same,IL-12p70 (pg/mL) at 0.1 µg/mL Cifurtilimab,309 pg/mL
same,IL-12p70 (pg/mL) at 1 µg/mL Cifurtilimab,312 pg/mL
same,IL-12p70 (pg/mL) at 3 µg/mL Cifurtilimab,397 pg/mL
same,IL-12p70 (pg/mL) at 10 µg/mL Cifurtilimab,402 pg/mL
same,"IL-12p70 (pg/mL), Cifurtilimab together with Atezolizumab, batch 1 (control with Atezolizumab alone 4.1)",450 pg/mL
same,"IL-12p70 (pg/mL), Cifurtilimab together with Atezolizumab, batch 2 (control with Atezolizumab alone 4.8)",1220 pg/mL
same,"IL-12p70 (pg/mL), Cifurtilimab together with Atezolizumab, batch 3 (control with Atezolizumab alone 5.7)",1110 pg/mL
same,"IL-12p70 (pg/mL), Cifurtilimab together with Atezolizumab, batch 4 (control with Atezolizumab alone 5.0)",454 pg/mL
same,"IL-12p70 (pg/mL), agonist at 2 µg/mL (control group 50.0)",1490 pg/mL
same,"functional and activity indices of mDC (CD83, IL-12, T cell activation) against antibody concentration",> 0.1 µg/mL
same,"increase of IFN-γ secreting T cells over control, Cifurtilimab together with Atezolizumab",21.8%
same,"increase rate of CD83 positive ratio over control, Cifurtilimab together with Atezolizumab",19.1%
same,"mean CD83+ cells (%), Cifurtilimab together with Atezolizumab (control 80.35%)",95.7%
same,"mean IL-12 secretion, Cifurtilimab together with Atezolizumab (control 4.9 pg/mL)",746 pg/mL
